Test results reported in patent US20220025055A1 (Boehringer Ingelheim, published 2022).

T1: human FLT3 (FMS-like tyrosine kinase 3) (human, UniProt P36888 27-993)
T1 sequence (looked up): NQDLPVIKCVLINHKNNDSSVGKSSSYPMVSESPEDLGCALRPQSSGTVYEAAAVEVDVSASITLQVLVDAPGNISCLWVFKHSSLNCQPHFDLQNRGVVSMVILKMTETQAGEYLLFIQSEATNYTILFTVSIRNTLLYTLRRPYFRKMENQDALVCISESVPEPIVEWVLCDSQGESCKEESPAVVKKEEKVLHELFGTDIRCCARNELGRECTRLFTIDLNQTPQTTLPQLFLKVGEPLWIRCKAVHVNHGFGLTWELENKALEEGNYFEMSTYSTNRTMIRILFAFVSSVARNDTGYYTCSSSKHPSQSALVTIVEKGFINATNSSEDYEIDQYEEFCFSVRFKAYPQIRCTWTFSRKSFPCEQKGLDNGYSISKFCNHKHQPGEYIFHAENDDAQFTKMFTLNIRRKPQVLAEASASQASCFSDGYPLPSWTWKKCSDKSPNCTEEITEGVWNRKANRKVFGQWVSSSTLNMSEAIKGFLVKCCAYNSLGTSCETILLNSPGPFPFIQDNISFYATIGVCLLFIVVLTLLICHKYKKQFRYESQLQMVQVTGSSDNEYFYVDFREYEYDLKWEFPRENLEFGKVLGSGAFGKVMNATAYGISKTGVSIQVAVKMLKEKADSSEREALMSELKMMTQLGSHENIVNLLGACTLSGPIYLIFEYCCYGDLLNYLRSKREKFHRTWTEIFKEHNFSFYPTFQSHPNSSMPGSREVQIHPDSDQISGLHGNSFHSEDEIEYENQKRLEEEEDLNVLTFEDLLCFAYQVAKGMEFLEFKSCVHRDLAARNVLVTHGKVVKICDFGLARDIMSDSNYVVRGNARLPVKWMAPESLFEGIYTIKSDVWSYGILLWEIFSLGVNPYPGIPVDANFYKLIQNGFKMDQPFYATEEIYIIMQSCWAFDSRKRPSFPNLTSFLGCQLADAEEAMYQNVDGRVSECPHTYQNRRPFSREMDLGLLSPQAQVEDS


Assays:
Assay in all cases: cell-based or functional assay
[1] = biological target: T1, human FLT3 (FMS-like tyrosine kinase 3)
[2] = biological target: T1, human FLT3 (FMS-like tyrosine kinase 3); remark: listed apart in the source
[3] = biological target: T1, human FLT3 (FMS-like tyrosine kinase 3); remark: listed apart in the source

| Molecule | EC50 in AML5 proliferation assay [2] | also measured |
| --- | --- | --- |
| FLT3 ligand (FLT3L) (from UniProt P49771 27-181) |  | EC50 of expansion of HLA-DR+CD1c+ cells from primary human bone marrow, 12 days [1]: 23 pM |
| Humanized VH5 x Humanized VL2 (antibody, V domains shown) VH: EVQLVESGGVVVQPGGSLRLSCAPSGFTFSNYGMAWVRQAPGKGLEWVSSIHSGGGDTYYADSVKGRFTISRDNSKNSLYLQMNSLRTEDTALYYCARGRTPTGYYFDHWGQGTMVTVSS VL: AIQMTQSPSSLSASVGDRVTITCRASEGIHNGLAWYQQKPGKAPKLLIYNANSLHSGVPSRFSGSGSGTDFTLTISSLQPEDFATYYCQQYYDYPLTFGQGTKLEIK |  | Single dose STAT5-Luc assay, activity relative to NB1016 (chimeric), antibody at 1 nM [3]: 53% |
| Humanized VH5 x Humanized VL3 (antibody, V domains shown) VH: EVQLVESGGVVVQPGGSLRLSCAPSGFTFSNYGMAWVRQAPGKGLEWVSSIHSGGGDTYYADSVKGRFTISRDNSKNSLYLQMNSLRTEDTALYYCARGRTPTGYYFDHWGQGTMVTVSS VL: AIQLTQSPSSLSASVGDRVTITCRASEGIHNGLAWYQQKPGKAPKLLIYNANSLHSRVPSRFSGSGSGTDFTLTISSLQPEDFATYFCQQYYDYPLTFGQGTKLEIK |  | Single dose STAT5-Luc assay, activity relative to NB1016 (chimeric), antibody at 1 nM [3]: 31% |

More lines, main results first:

| EC50 in AML5 proliferation assay [2] | Molecule | also measured |
| --- | --- | --- |
| 118 pM | NB1063 (antibody, V domains shown) VH: EVQLLESGGGLVQPGGSLRLSCAPSGFTFSNYGMAWVRQAPGKGLEWVSSIHSGGGDTYYRDSVKGRFTISRDNSKNTLYLQMNSLRAEDTAVYYCARGRTPTGYYFDHWGQGTMVTVSS VL: DIQMTQSPSSLSASVGDRVTITCRASEGIHNGLAWYQQKPGKVPKLLIYNANSLHSGVPSRFSGSGSGTDFTLTISSLQPEDVATYFCQQYYDYPLTFGQGTKLEIK |  |
| 201 pM | NB1114 (antibody, V domains shown) VH: EVQLLESGGGLVQPGGSLRLSCAPSGFTFSNYGMAWVRQAPGKGLEWVSSIHSGGGDTYYRDSVKGRFTISRDNSKNTLYLQMNSLRAEDTAVYYCARGRTPTGYYFDHWGQGTMVTVSS VL: DIQMTQSPSSLSASVGDRVTITCRASEGIHTGLAWYQQKPGKVPKLLIYNANSLHSGVPSRFSGSGSGTDFTLTISSLQPEDVATYFCQQYYDYPLTFGQGTKLEIK |  |
| 270 pM | NB1112 (antibody, V domains shown) VH: EVQLLESGGGLVQPGGSLRLSCAPSGFTFSNYGMAWVRQAPGKGLEWVSSIHSGGGDTYYRDSVKGRFTISRDNSKNTLYLQMNSLRAEDTAVYYCARGRTPTGYYFDHWGQGTMVTVSS VL: DIQMTQSPSSLSASVGDRVTITCRASEGIHDGLAWYQQKPGKVPKLLIYNANSLHSGVPSRFSGSGSGTDFTLTISSLQPEDVATYFCQQYYDYPLTFGQGTKLEIK |  |
| 135 pM | NB1115 (antibody, V domains shown) VH: EVQLLESGGGLVQPGGSLRLSCAPSGFTFSNYGMAWVRQAPGKGLEWVSSIHSGGGDTYYRDSVKGRFTISRDNSKNTLYLQMNSLRAEDTAVYYCARGRTPTGYYFDHWGQGTMVTVSS VL: DIQMTQSPSSLSASVGDRVTITCRASEGIHLGLAWYQQKPGKVPKLLIYNANSLHSGVPSRFSGSGSGTDFTLTISSLQPEDVATYFCQQYYDYPLTFGQGTKLEIK |  |
